Assay results from patent US11078259B2, “Methods and compositions for promoting thermogenic potential” (Joslin Diabetes Center, Inc., priority 2015, dated 2021).

How the values were obtained:
[1] = tested on: hWAT-SVF and hBAT-SVF progenitors; test: Glucose uptake, fatty acid uptake and oxidation in adipocytes from BMP7 pre-treated progenitors; format: cell-based, human; conditions: hWAT-SVF from both subjects and hBAT-SVF from Subject 2; 3.3 nM BMP7 pre-exposure 6 days
Procedure: (§1) FIG. 6B depicts OCR assayed using the Seahorse extracellular flux analyzer in differentiated hWA and hBA from Sub1 and Sub2 that were pre-treated with 3.3 nM BMP7 or vehicle (Veh) for 6 days and then differentiation into mature adipocytes. Equal numbers of progenitors were plated and differentiated. Quantification of OCR in the absence (Basal Res.) and presence of oligomycin (Proton Leak) or FCCP (Max. Res.) are shown. Data are presented as mean±s.e.m. (n=10; two-tailed Student's t-test; *P<0.05, **P<0.01, ***P<0.001). A representative experiment from a total of two independent studies is shown. Data are represented in the same order as appeared in the legend. […]
After serum starvation in DMEM/H medium containing 1% of BSA for 2-3 h, differentiated human white and brown adipocytes were washed with HEPES buffer. […] Glucose transport was determined by the addition of 2-deoxy-[^3H]glucose (0.1 mM, 0.5 μCi/mL; PerkinElmer Life and Analytical Science, Waltham, Mass.). […] Cells were then lysed in 0.1% SDS, and glucose uptake was assessed in 4 mL of scintillant using Beckman LS6500 scintillation counter (Beckman Coulter, Indianapolis Ind.). Nonspecific 2-deoxy-[^3H]glucose uptake was measured in the presence of cytochalasin B (20 μM) and was subtracted from the total uptake to get specific glucose uptake. Results were expressed as the mean±s.e.m. of the indicated number of experiments. […]

[2] = tested on: hWAT-SVF and hBAT-SVF progenitors; test: OCR (Seahorse) in adipocytes from BMP7 pre-treated progenitors; format: cell-based, human; conditions: hWAT-SVF from both subjects and hBAT-SVF from Subject 2; 3.3 nM BMP7 pre-exposure 6 days
Procedure: as §1, with “legend. FIGS. 6C and 6D depict measurement of glucose uptake using ^3H 2-Deoxy-Glucose in differentiated hWA and hBA from Sub1 and Sub2 that were pre-treated with 3.3 nM BMP7 or vehicle (Veh) for 6 days and then differentiation into mature adipocytes.” for “legend.”
To assess mitochondrial respiration, a Seahorse Extracellular Flux Analyzer (Seahorse Bioscience Inc., North Billerica, Mass.) was used to quantify oxygen consumption rates (OCR) of differentiated human white and brown adipocytes. […] After adipogenic induction for 12 days, OCR was analyzed. […] All data were average of four-time points with 10 wells per time point by quantified in bar plots, and error bars are standard error of the mean (s.e.m.). […]

B1: BMP7: Recombinant human BMP7, an inducer of brown adipogenesis (protein, UniProt P18075 293-431, looked up)
Bone morphogenetic protein 7: STGSKQRSQNRSKTPKNQEALRMANVAENSSSDQRQACKKHELYVSFRDLGWQDWIIAPEGYAAYYCEGECAFPLNSYMNATNHAIVQTLVHFINPETVPKPCCAPTQLNAISVLYFDDSSNVILKKYRNMVVRACGCH
In the case of B1, the “fuel utilization in mature adipocytes” value [1] is reported as “enhanced” and the “mitochondrial activity in mature adipocytes” value [2] is reported as “enhanced”.
